Test results reported in the DeepSol protein solubility set.

Assay: soluble on expression in E. coli; label from the status in PepcDB or PDB records

**Q.** With “MAHHHHHHMPSAPTCQHGSYHQCECYGHNTQLPNYRHDISNPRTLQGYYAPNGGCPCPATCGAEKHGLYCSDRGADASAMPKLTFRAADGPHTVHSASDVDGNGRDPATSIRTAFPNSRNYGGTVAQRGPTTLSTRAQLSASRKARAEAKREERAQDRKNFLRGVLRDEMLARMDAEGKRAALEADTGLMGTHHGEEYEANQRAAGSMRGGLDSTSRDPDTVLTLGEQYREIMDELEYVADQPVGSKYNIIRLHYLVEEEDRLNRLRLQERIRKTAEAMQSKK” as the sequence, how does the “soluble on expression in E. coli” value read?
**A.** not soluble

**Q.** With “MAHHHHHHMQEFSTYSLFSRKNETVSGMDENFDNHPENYFKEEYYYDENDDMEVKVKKIGVTLKKFEPLKNGNVSETIKLIHLGNKDKKHIEAINNDIQIIKQELQAIYNELMNYTNGNKNIQQIFQQNILENDVLNQETERQTRSRGGG” as the sequence, how does the “soluble on expression in E. coli” value read?
**A.** soluble

**Q.** Which “soluble on expression in E. coli” value does the source give for “MAHHHHHHMQFGIKVEPYGYDKLVWLETDALKVGLTNYAASVASIQVYHPADNKWIEVNCGYPKNPEEAYADPDYMGATVGRCAGRVAGGVFTLDGVKYYTQKNRGENTCHCGDDAYHKKHWGMKLIETANVIGVRFNYTSPHMESGFPGEVKNYCTFTIDRSKPNALKTIYDSYITDNSPCDASPINVFSHTSFNLNGIPGQQDGEKNWVQPESVRNHWLRVPASRVAEADRMAIPTGEFLSVEGTGLDFRQGRVIGDCIDDVALLDRDPCGYDHPLAIDGWEKGKLMLHAEAKSPVTNICMKVYSTFPCMWVYTANNKPLPASGGPGQRYARWTGLLVGPQNFSDVANHYPKYPSCIVRRGERQYSETTINEFTIEQ” here?
**A.** soluble

**Q.** With “MAHHHHHHMQFGPVVSEAEIRTVQDGIANGVRSDGRSLTQRRPFTVVTNRGSTTHFEGSSVEVHCDGTTVVAAATPSVVELDIDRGQAPRGSLFVNIDAVPAVVEHYAQSVRNNSARYRQAFLSFLATAIRQTFGAQGVTAEERQQQLGIAEAEIIADEGDDEQREDAFGGRGAAEEKPVEETAEQRVDCCGFPGEQLYIGGGYAFRIDVDAHVLQAHGGSLASIVALAVHAALKTVRLPSVTLHEASAGFSLEVNYSKPYATAVNWSRLPVLSVVHVSPTRHYVVDPTRLEELALPQQLRVAVNSFGQVFHMRFQQLPSRRGNAMRLIRSPREEAGKDNSNDNSERDVDGDDVDDSSRRGFDAGVKGTVGGMNMPDMAAVLHAAVHISQAVIAECDEALAGSSG” as the sequence, how does the “soluble on expression in E. coli” value read?
**A.** not soluble

**Q.** With “MAHHHHHHMQQLEQELSLRQSAIETREQQLEMVQLDGARGREAIMRERHSIEEVRRTVRVERCRQRRLWIHQIKEMNAKVLEQVRLLAEERKKNCEQATAKEDAAERAFAADIKMIEEYLPKLISLEDIPVNPEETDIIRRQFDEVFTQGEQTYLASAEEEQARKERLGRGLEVYRQRMLDDYVGKENGKLHDAEATERHLSSVVDQVLN” as the sequence, how does the “soluble on expression in E. coli” value read?
**A.** not soluble

**Q.** Which “soluble on expression in E. coli” value does the source give for “MAHHHHHHMQSQQHHYTASPTASPALSRAGVSSTPVLILDLGSRTIKSGLHTATTPHLTPALVGTPKYPRCLPQVSSSFNQSSSISTSCFVVGSDAASRRGVLRLSRPIQHGGVIMDWVGTRPLLRQSIQNALVPPSSSLAVRQPLEEGEDVIYSLVESPYASRPQRARLAELLFEGPDQEAVMSDSGKQQRVGPRAAGVFCGVGPLLALYATGQTTGVVVDVGDGAVSTAAAADGYVLPQCLQREADGATGAAVTSYLTRLLYQSGVLGPAAATAAFRRSAPPSLLGSATNHLSSGAGAGTQQERELVYALKEACCSVSATPLFSTKSSLAAADASTAATPSLAELNSALIAAAQRTQHSGPGGSGAAHASTPFSHPFTLPDGSFLEVGGAEAAQASEVLFYPALMGSEGRGVVDVVLDAVAAAPAELQPQLLGNVVVTGGVTCSAGFGYRFFNEMQQRIRGCAASSTNGSSNQRICVSAPEQRAYAAWMGASYVAQISSFASSMVVTRAAYEEEGEAALARRVLT” here?
**A.** not soluble

**Q.** For “MAHHHHHHMRGKGHKRLAARSFQQWQKLHYNALCDRQMPTPLHATLRLPVRRVAHQPSSCPSAPASVDMQLTTNSSAVLQWWQREYDPFLLGCDASAHRTAGPTPPATTATHVLASTRVSAHVGPPAPPLGYPDYIAIEATQHTEGVLRGETYAYHHAAAVGAVPAPPPGAAYPSPVKWIQQPLLDGFVAQRLTAHIGVTTGSLLDTRRTAMALGRQLPPVELSPFYAASALLDRWCLFGEAAAVVPSMPASSGATLDGTQQSQRPHDAAAHHLRIAELALGAGLLSNYRAVWLNGAVLSHPGTARSVLVVGPRRSGKTTLALHCLSAAAMQASSSASGDGGVRLTAAEHFFLAAGMPVRRMLDPASTRLTSPTIFACSLPHHITVGLGAVLGTLRPNPGLAAAVELPSFLQCEAGLRACLRNTDGVLWDMSKTYRVRLEDIYRASSPDISTQWAPVVVNTLAGVVLLDWNVEELASASPTPVRNAVREIPLHDGGVEELLKRAQDYMFHGHHLLRTVYDAPQDAPARLADALADEWDTAQPRSLANGTAPALHCIEGSVNFDLATQLIMSLLSERA”, which “soluble on expression in E. coli” value is on record?
**A.** not soluble

**Q.** Which “soluble on expression in E. coli” value does the source give for “MAHHHHHHMRRWGAAGPLRSGLQLRQVASAARRRQPAQLKIPISDAPAHVKAMERPRSKLETPAAYSSFRSTETIEEFRENYKYLAAGERETSVTARVAGRITSLRDMGKMLFATVRSSGVDLQLVVHVGEHFTRDCLKQLRASLRVGDIVGAEGIPCRMQRGELSLAASRVEVLAPYVCRDQVVCPDLRGFTQLQDNDVRYRYRFVDMMTNRSVIDTIRKRHTVLQSLREYLDMRHFVEVETPILHTVASGANAKPFVTHHNANNADLFLRVAPELYLKQCVVGGLERVYEIGKVFRNEDADRSHNPEFTTCEFYAAYHTYEDLITMTEDIFRHLALRANGTTQLQIQCERAGITREIDLGATFRRISVYDEIQSASGVELPPPNELNTPKGLAYMSAIMLRHDIQFPAVRTAAKMFDKLIDFFITSHIVEPTFVMDHPIFMSPLAKEHSSRPGLAERFELFINGIEYCNAYSELNDPQEQCHRFQQQLIDRQGGDEEAMPLDETFLKSLQVGLPPTAGWGMGIDRVVMLLSGSSTIRDGIIFPLLRQDTRSHDCKRRHRVATFFDFNHQMALLCLSGVEQEMKRRGFPEASCAHIRELRQTIRDLGQRSGESDLTNFNCGEWWPGLTKTMIRLMCGRPRS” here?
**A.** not soluble

**Q.** For “MAHHHHHHMRVYECDFYSHPAVCKYRLPKPYRHPTLDKRLREQRSVREARALVRCQKQGIAVPAVYAIDRESCAIVMERIIGMSVRDVLNEAQRPLEGAVSPVAARLLEGMGEVVGLLHNAHIIHGDLTTSNFMYRTATVAEGKADSAACGAAPRDRLVVLDFGLVMDKNSAEERAVDLYVLERAIKSSHPSLEGVASAFILNGYRRTADPHQVEATITRLGAVRARGRKRSMVG”, which “soluble on expression in E. coli” value is on record?
**A.** not soluble

**Q.** For “MAHHHHHHMSAARDDSAPCAVPSTLWRECLKQYDYGPDRPKGACEAHRTKFYDCVKDWTARTQHKSYSYTQFELPKSCGHEAEKLHQCMMMNMFEVGHCQRDMAVLKRCAARVDPEVRKYLQDDEAIADLENDIDEATGLKRLWYKVIGKL”, which “soluble on expression in E. coli” value is on record?
**A.** soluble

**Q.** For “MAHHHHHHMSASPQLTRELSEDLLAGRYECVVCSEPVGHRQELWACSCCYGVFHLPCIRFWADSQMKARDRQLQSTSGVAVRGELERFRCPLCQSFKDKDSLAVYQCYCGKTAKPPADAMLVPGSCGQPCERRQADPCCPHRCTLLCHPGPCPACTRVREQACWCGKHSKTVGCSSSIHGYECDEACGKLLDCGEHRCKAPCHEGVCPVCTVMVTEKCYCGATVRTRRCGAAPPAFAGAAATAAADDRAAGDAGAGASVSGFRCAHHCEKKRDCDQHVCGMLCHPGLCEKCYRTPQRQKFCPCGKTRVQVERTSCMDPVPSCGLPCELPLPCGHLCWLTCHDETPCAPCKETVTVPCACGSRHVSSPCFCQYLPESEWEAARVQCGLPTDSLPVSVPPKCNQVCRHMLSCHKHRCTMTCCTDAEHTCLQICIRKLACGVHQCGRLCHQGKCPPCAHVSYERLYCRCRKTWVDPPVPCGMRPPQCNHPCSIPRPCGHPPNHPCHIEAECPKCVVLEEKPCASHQKPMPFHMPCYKKEISCGRKCGKNLPCCGKFCDLVCHIGPCEHDCAKSFPTLADVLKRGKGAAA”, which “soluble on expression in E. coli” value is on record?
**A.** not soluble

**Q.** For “MAHHHHHHMSAWASGDTLERLKLKPETAPSNRGNGRQASADATSSTSVKATSNADAEGVVQASMAATIASTNKNKNKKALEGKVSKKNAPKNTAHTADEKQPPTQEQTASSSGGAKRNEPKKGASDSRDCPVTLPSDVAELVVNAFTFIGTVQALRAGTSTDGRESMLSAAVRAPEFVPQRRDYAVQNATSGSDTQHVGELASNAYPMHHHHHHHHYQLHQQQKQPQHTPLVSTSRVQQQEQPPWAPYYNDQQHRQHHSVHHHRHQQQQQQLAYGQPDCTTGKMYHDAYSPVDYDMNLCAAPPYSRMYSGYPGMCMGANMLPNMSGYGGLALRRPLPYFPQQQNQVTAYKSTHVGQQQPWMRNDSGPSNARKGSGAGQWYPGGQAGFNDALSVWNQQRNAGNWARQAEQSGPAGAHTSSAP”, which “soluble on expression in E. coli” value is on record?
**A.** not soluble
